The term Kd denotes the equilibrium constant for the complex coming apart. Low readings indicate higher affinity, high ones lower affinity. Broadly, the koff is the first-order rate constant of dissociation. The low end stands for a long-lived complex, the high end for a short-lived complex.

From article PMC3686486 come the findings set out here.

In experiment [1] the target is Bacillus thuringiensis subsp. israelensis Cry4Ba toxin (Bacillus thuringiensis subsp. israelensis). Kind of experiment: ELISA.
Bacillus thuringiensis subsp. israelensis Cry4Ba toxin (Bacillus thuringiensis subsp. israelensis), sequence (P05519 whole entry): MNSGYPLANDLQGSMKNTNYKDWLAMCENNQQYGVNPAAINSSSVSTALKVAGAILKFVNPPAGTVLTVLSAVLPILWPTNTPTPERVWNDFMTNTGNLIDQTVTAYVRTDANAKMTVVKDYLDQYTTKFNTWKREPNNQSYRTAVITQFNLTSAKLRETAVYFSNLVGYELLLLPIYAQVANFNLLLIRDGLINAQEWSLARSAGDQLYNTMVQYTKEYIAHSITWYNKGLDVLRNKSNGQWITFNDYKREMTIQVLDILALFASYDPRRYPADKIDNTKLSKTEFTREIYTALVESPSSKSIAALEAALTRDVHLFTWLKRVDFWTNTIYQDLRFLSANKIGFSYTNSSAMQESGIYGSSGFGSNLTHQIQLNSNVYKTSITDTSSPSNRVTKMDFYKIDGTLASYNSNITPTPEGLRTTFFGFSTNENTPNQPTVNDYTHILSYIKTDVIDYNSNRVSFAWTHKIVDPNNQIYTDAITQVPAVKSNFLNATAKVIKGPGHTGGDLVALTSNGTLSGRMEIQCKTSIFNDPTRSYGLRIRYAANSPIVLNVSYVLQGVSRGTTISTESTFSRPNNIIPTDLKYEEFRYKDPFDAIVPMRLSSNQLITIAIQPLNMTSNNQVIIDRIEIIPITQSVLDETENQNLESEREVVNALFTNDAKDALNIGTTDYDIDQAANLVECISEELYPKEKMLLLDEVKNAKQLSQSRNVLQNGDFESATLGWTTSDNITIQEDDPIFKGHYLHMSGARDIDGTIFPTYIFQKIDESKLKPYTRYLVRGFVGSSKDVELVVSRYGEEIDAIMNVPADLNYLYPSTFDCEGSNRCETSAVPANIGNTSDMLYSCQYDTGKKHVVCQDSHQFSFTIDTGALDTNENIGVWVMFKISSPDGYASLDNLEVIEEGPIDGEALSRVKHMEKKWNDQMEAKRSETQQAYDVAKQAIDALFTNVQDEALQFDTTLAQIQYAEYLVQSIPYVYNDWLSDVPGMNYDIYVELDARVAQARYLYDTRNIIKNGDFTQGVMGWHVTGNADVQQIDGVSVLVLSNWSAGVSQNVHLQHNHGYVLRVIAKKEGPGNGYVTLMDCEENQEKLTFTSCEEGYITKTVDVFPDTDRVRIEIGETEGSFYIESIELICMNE
In experiment [2] the target is Bacillus thuringiensis subsp. israelensis Cry11Aa toxin (Bacillus thuringiensis subsp. israelensis) (UniProt P21256). Kind of experiment: ELISA. Background: In an ELISA, binding on a coated surface is turned into a signal by an enzyme label.
Experiment [3] concerns the target Bacillus thuringiensis subsp. israelensis Cry4Ba toxin (Bacillus thuringiensis subsp. israelensis). Kind of experiment: SPR. (Surface plasmon resonance follows binding to a sensor surface in real time, without labels.)
In experiment [4] the target is Bacillus thuringiensis subsp. israelensis Cry11Aa toxin (Bacillus thuringiensis subsp. israelensis) (UniProt P21256). Kind of experiment: SPR.

As for “Aedes aegypti cadherin receptor fragment CR7–11 (cadherin repeats 7–11) (domain or fragment)”, the figures for the Kd in experiment [1], in experiment [2] and in experiment [3] were 135 nM, 14.8 nM and 154 nM, respectively. In addition, the results for the koff in experiment [3] and in experiment [4] were 0.00203 s⁻¹ and 0.00252 s⁻¹, respectively.
